Reference: the supplement of paper PMC11246515
± gives the standard deviation of the averaged measurements.

Assay: total protein half-life in vivo (active degradation + dilution); higher = more stable protein
[1] = E. coli NCM3722 delta-clpP delta-lon delta-hslV, growth: N-lim chemostat, doubling time 6 h
[2] = E. coli NCM3722 delta-clpP, growth: N-lim chemostat, doubling time 6 h
[3] = E. coli NCM3722 delta-hslV, growth: N-lim chemostat, doubling time 6 h
[4] = E. coli NCM3722 delta-lon, growth: N-lim chemostat, doubling time 6 h
[5] = E. coli NCM3722 delta-smpB, growth: N-lim chemostat, doubling time 6 h
[6] = wild type E. coli NCM3722, growth: C-lim chemostat, doubling time 12 h
[7] = wild type E. coli NCM3722, growth: N-lim chemostat, doubling time 6 h
[8] = wild type E. coli NCM3722, growth: N-lim chemostat, doubling time 12 h
[9] = wild type E. coli NCM3722, growth: P-lim chemostat, doubling time 6 h
[10] = wild type E. coli NCM3722, growth: P-lim chemostat, doubling time 12 h
[11] = wild type E. coli NCM3722, growth: C-lim chemostat, doubling time 3 h
[12] = wild type E. coli NCM3722, growth: C-lim chemostat, doubling time 6 h

Sequence | total protein half-life in vivo [1] | total protein half-life in vivo [2] | total protein half-life in vivo [3] | total protein half-life in vivo [4] | total protein half-life in vivo [5] | total protein half-life in vivo [6] | total protein half-life in vivo [7] | total protein half-life in vivo [8] | total protein half-life in vivo [9] | total protein half-life in vivo [10] | total protein half-life in vivo [11] | total protein half-life in vivo [12]
MLVWLAEHLVKYYSGFNVFSYLTFRAIVSLLTALFISLWMGPRMIAHLQKLSFGQVVRNDGPESHFSKRGTPTMGGIMILTAIVISVLLWAYPSNPYVWCVLVVLVGYGVIGFVDDYRKVVRKDTKGLIARWKYFWMSVIALGVAFALYLAGKDTPATQLVVPFFKDVMPQLGLFYILLAYFVIVGTGNAVNLTDGLDGLAIMPTVFVAGGFALVAWATGNMNFASYLHIPYLRHAGELVIVCTAIVGAGLGFLWFNTYPAQVFMGDVGSLALGGALGIIAVLLRQEFLLVIMGGVFVVETLSVILQVGSFKLRGQRIFRMAPIHHHYELKGWPEPRVIVRFWIISLMLVLIGLATLKVR [P0A6W3] | 6.14 h | 5.83 h | 5.23 h | 5.13 ± 0.073 h | 7.03 h | 12.3 ± 0.13 h | 6.35 ± 0.4 h | 13.1 h | 6.06 h | 11.1 ± 0.92 h | – | –
MKILVIGPSWVGDMMMSQSLYRTLQARYPQAIIDVMAPAWCRPLLSRMPEVNEAIPMPLGHGALEIGERRKLGHSLREKRYDRAYVLPNSFKSALVPFFAGIPHRTGWRGEMRYGLLNDVRVLDKEAWPLMVERYIALAYDKGIMRTAQDLPQPLLWPQLQVSEGEKSYTCNQFSLSSERPMIGFCPGAEFGPAKRWPHYHYAELAKQLIDEGYQVVLFGSAKDHEAGNEILAALNTEQQAWCRNLAGETQLDQAVILIAACKAIVTNDSGLMHVAAALNRPLVALYGPSSPDFTPPLSHKARVIRLITGYHKVRKGDAAEGYHQSLIDITPQRVLEELNALLLQEEA | 6.06 ± 0.088 h | 6.69 ± 0.98 h | 5.71 ± 0.23 h | 5.22 ± 0.11 h | 6.11 ± 0.48 h | 11.7 ± 2.8 h | 6.4 ± 0.97 h | 11.1 ± 1.8 h | 6.54 ± 0.24 h | 11.7 ± 1.7 h | 3.24 ± 0.14 h | 5.58 ± 0.14 h
MKPVTLYDVAEYAGVSYQTVSRVVNQASHVSAKTREKVEAAMAELNYIPNRVAQQLAGKQSLLIGVATSSLALHAPSQIVAAIKSRADQLGASVVVSMVERSGVEACKAAVHNLLAQRVSGLIINYPLDDQDAIAVEAACTNVPALFLDVSDQTPINSIIFSHEDGTRLGVEHLVALGHQQIALLAGPLSSVSARLRLAGWHKYLTRNQIQPIAEREGDWSAMSGFQQTMQMLNEGIVPTAMLVANDQMALGAMRAITESGLRVGADISVVGYDDTEDSSCYIPPLTTIKQDFRLLGQTSVDRLLQLSQGQAVKGNQLLPVSLVKRKTTLAPNTQTASPRALADSLMQLARQVSRLESGQ | 5.83 ± 0.72 h | 5.64 ± 0.41 h | 4.55 ± 0.067 h | 4.85 ± 0.15 h | 4.13 ± 0.042 h | 7.63 ± 1.8 h | 5.01 ± 0.34 h | 7.759 ± 0.077 h | 4.77 ± 0.2 h | 10.5 ± 0.49 h | 2.96 ± 0.24 h | 5.81 ± 0.66 h
MLRIAKEALTFDDVLLVPAHSTVLPNTADLSTQLTKTIRLNIPMLSAAMDTVTEARLAIALAQEGGIGFIHKNMSIERQAEEVRRVKKHESGVVTDPQTVLPTTTLREVKELTERNGFAGYPVVTEENELVGIITGRDVRFVTDLNQPVSVYMTPKERLVTVREGEAREVVLAKMHEKRVEKALVVDDEFHLIGMITVKDFQKAERKPNACKDEQGRLRVGAAVGAGAGNEERVDALVAAGVDVLLIDSSHGHSEGVLQRIRETRAKYPDLQIIGGNVATAAGARALAEAGCSAVKVGIGPGSICTTRIVTGVGVPQITAVADAVEALEGTGIPVIADGGIRFSGDIAKAIAAGASAVMVGSMLAGTEESPGEIELYQGRSYKSYRGMGSLGAMSKGSSDRYFQSDNAADKLVPEGIEGRVAYKGRLKEIIHQQMGGLRSCMGLTGCGTIDELRTKAEFVRISGAGIQESHVHDVTITKESPNYRLGS [P0ADG7] | 5.001 ± 0.0064 h | 3.78 ± 0.047 h | 4.06 ± 0.047 h | 4.91 ± 0.38 h | 3.95 ± 0.36 h | 11.2 ± 1.9 h | 4.29 ± 0.39 h | 6.68 ± 0.18 h | 6.02 ± 0.29 h | 12.5 ± 0.63 h | 3.01 ± 0.44 h | 5.76 ± 0.073 h
MDLIYFLIDFILHIDVHLAELVAEYGVWVYAILFLILFCETGLVVTPFLPGDSLLFVAGALASLETNDLNVHMMVVLMLIAAIVGDAVNYTIGRLFGEKLFSNPNSKIFRRSYLDKTHQFYEKHGGKTIILARFVPIVRTFAPFVAGMGHMSYRHFAAYNVIGALLWVLLFTYAGYFFGTIPMVQDNLKLLIVGIIVVSILPGVIEIIRHKRAAARAAK [P0ABP6] | 3.68 ± 0.076 h | 3.87 h | 3.74 h | 3.148 ± 0.016 h | 4.71 ± 0.57 h | 9.21 ± 3.2 h | 3.7 ± 0.13 h | 6.2 ± 0.26 h | – | 7.57 ± 1.5 h | 2.65 ± 0.21 h | 5.03 ± 0.88 h
MKALSKLKAEEGIWMTDVPVPELGHNDLLIKIRKTAICGTDVHIYNWDEWSQKTIPVPMVVGHEYVGEVVGIGQEVKGFKIGDRVSGEGHITCGHCRNCRGGRTHLCRNTIGVGVNRPGCFAEYLVIPAFNAFKIPDNISDDLAAIFDPFGNAVHTALSFDLVGEDVLVSGAGPIGIMAAAVAKHVGARNVVITDVNEYRLELARKMGITRAVNVAKENLNDVMAELGMTEGFDVGLEMSGAPPAFRTMLDTMNHGGRIAMLGIPPSDMSIDWTKVIFKGLFIKGIYGREMFETWYKMAALIQSGLDLSPIITHRFSIDDFQKGFDAMRSGQSGKVILSWD | 4.87 ± 0.096 h | 5 ± 0.21 h | 5.96 ± 1.6 h | 5.24 ± 0.061 h | 4.44 ± 0.18 h | 9.68 ± 1.8 h | 4.85 ± 0.16 h | 8.68 ± 0.96 h | 6.2 ± 0.19 h | 12.6 ± 0.36 h | 2.439 ± 0.022 h | 4.37 ± 0.59 h
MTPTIELICGHRSIRHFTDEPISEAQREAIINSARATSSSSFLQCSSIIRITDKALREELVTLTGGQKHVAQAAEFWVFCADFNRHLQICPDAQLGLAEQLLLGVVDTAMMAQNALIAAESLGLGGVYIGGLRNNIEAVTKLLKLPQHVLPLFGLCLGWPADNPDLKPRLPASILVHENSYQPLDKGALAQYDEQLAEYYLTRGSNNRRDTWSDHIRRTIIKESRPFILDYLHKQGWATR | 4.82 ± 1 h | 3.94 ± 0.13 h | 4.1 ± 0.27 h | 4.4 ± 0.54 h | 3.98 ± 0.23 h | 9.24 ± 0.9 h | 3.89 ± 0.47 h | 7.96 ± 0.79 h | 5.01 ± 0.35 h | 9.93 ± 2.7 h | 2.93 ± 0.35 h | 4.8 ± 0.82 h
